Assay results as given in patent publication US20090269277A1.

Key:
CEA = CEA (UniProt P06731); assay: SE-HPLC of 125I-TF2 mixed with a 20-fold molar excess of CEA
[1] = biological target: recombinant human RIIalpha (commercial sample) (human) (UniProt P13861); assay: equilibrium SE-HPLC
Chain of recombinant human RIIalpha (commercial sample) (human) (P13861 whole entry): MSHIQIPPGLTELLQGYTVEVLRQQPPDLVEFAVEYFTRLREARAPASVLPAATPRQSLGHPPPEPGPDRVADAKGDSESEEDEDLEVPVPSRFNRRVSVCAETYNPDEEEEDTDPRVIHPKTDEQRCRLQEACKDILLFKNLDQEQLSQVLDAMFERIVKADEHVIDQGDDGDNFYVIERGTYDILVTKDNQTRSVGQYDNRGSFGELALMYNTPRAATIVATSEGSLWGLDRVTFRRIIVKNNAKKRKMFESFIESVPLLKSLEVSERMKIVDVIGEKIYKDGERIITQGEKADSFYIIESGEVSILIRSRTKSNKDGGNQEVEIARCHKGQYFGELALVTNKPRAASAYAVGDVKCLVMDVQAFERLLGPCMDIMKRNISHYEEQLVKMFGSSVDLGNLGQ

Chain of CEA (P06731 35-685 limits assumed): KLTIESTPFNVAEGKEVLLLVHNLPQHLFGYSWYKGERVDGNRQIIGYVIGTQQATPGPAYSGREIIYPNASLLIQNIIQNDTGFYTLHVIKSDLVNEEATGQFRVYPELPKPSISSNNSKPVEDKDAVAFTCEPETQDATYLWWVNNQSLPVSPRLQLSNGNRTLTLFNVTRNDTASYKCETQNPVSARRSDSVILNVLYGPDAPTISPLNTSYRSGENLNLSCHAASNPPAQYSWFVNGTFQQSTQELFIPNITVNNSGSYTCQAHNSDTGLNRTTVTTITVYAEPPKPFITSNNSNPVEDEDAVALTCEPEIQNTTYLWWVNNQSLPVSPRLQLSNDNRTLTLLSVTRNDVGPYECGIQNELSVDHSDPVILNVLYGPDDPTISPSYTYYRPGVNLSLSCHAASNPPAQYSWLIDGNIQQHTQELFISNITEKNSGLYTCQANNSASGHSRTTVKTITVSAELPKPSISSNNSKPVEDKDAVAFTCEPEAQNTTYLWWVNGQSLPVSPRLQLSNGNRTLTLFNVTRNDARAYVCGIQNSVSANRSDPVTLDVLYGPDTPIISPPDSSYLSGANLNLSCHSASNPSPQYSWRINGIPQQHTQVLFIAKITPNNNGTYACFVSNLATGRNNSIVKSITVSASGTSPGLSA

In the case of TF2 (bispecific antibody), the percent of labeled TF2 shifted to a high molecular weight species (CEA) is reported as 95%.

With PKSCGGGGSGGGGSGGGGSQIEYLAKQIVDNAIQQA (Fab, part only; not given: h679 Fd and light chain, part only) [h679-Fab-AD1] the Kd [1] was 30 nM.
